According to publication PMC7465787:

Columns and labels:
Cysteine-SpyCatcher [1] = assay: pull-down; Cys-SpyCatcher on magnetic beads (50 µl, 20 mg/ml) mixed with 500 µl crude leaf filtrate of plants expressing Mito-SpyTag; 30 min at 4 °C, mitochondria isolation buffer (30 mM MOPS pH 7.5, 0.3 M mannitol, 1 mM EDTA), three washes; mitochondria stained with MitoTracker Orange, read by CLSM and counted; wild type filtrate as control
Cysteine-SpyCatcher [2] = target: Cysteine-SpyCatcher
Cysteine-SpyCatcher [3] = assay: pull-down; Cys-SpyCatcher on magnetic beads (50 µl, 20 mg/ml) mixed with 200 µl crude leaf filtrate of plants expressing Plastid-SpyTag; 30 min at 4 °C, chloroplast isolation buffer (10 mM HEPES-KOH pH 7.0, 0.33 M sorbitol), three washes; chloroplasts on beads read by CLSM and counted; wild type filtrate as control

| Substance | percent of beads that carry a bound mitochondrion (Cysteine-SpyCatcher [1]) | enrichment of mitochondrial fumarase activity in the bead fraction compared to the crude input fraction (Cysteine-SpyCatcher [2]) | percent of beads that carry a chloroplast (Cysteine-SpyCatcher [3]) |
| --- | --- | --- | --- |
| Mito-SpyTag (NtHxk1-SpyTag) (from UniProt Q9SEK2 1-44) | 31.1% | 5.4 fold | – |
| Plastid-SpyTag (OEP7-SpyTag) | – | – | 22.8% |
